Experimental findings from patent US20070258954A1 are described below.

This assay addresses fluorogenic OmpT peptide substrate (FIG. 10). In words: cell-based or functional assay.

Substance “OmpT protease of E. coli, expressed from multicopy plasmid pML19 in UT5600 cells (from UniProt P09169 21-317) (enzyme)” showed a mean fluorescence intensity of cells by FACS after 10 min exposure to the substrate of 30 fold.
